Marks after values point to notes of the source that are not given here.
Tested on: RAMOS human Burkitt's lymphoma cells
Test: Human Non-Hodgkin RAMOS tumor in SCID mice, survival model
Type: in vivo
Settings: for Median Survival (Days Post-Inoculation): 3 mg/kg i.v., treatment related deaths excluded; for Survival, pairwise comparison (Holm-Sidak) vs. Group 2: Group 2 = Bendamustine (13 mg/kg); for Survival, pairwise comparison (Holm-Sidak) vs. Group 3: Group 3 = Bendamustine (16 mg/kg); for Survival, pairwise comparison (Holm-Sidak) vs. Group 5: Group 5 = MOR00208/Bendamustine (3/13 mg/kg); for Survival, pairwise comparison (Holm-Sidak) vs. Group 6: Group 6 = MOR00208/Bendamustine (3/16 mg/kg); for Survival, pairwise comparison (Holm-Sidak) vs. Group 1: Group 1 = MOR00208 (3 mg/kg)
Method: Cyclophosphamide (Baxter, Lot. No. 1A548C); Vehicle Control: 0.9% sodium chloride, 25 mg/ml mannitol, pH 6.5-6.8 (adjusted with 0.01 M NaOH); SCID Mice (University of Adelaide, Waite Campus, Urrbaraie, SA, Australia, Strain C.B.-17-Igh-1^b-Prkdc^scid); RAMOS human Burkitt's lymphoma cells (ATCC number CRL-1596); Ref_mAb_33_IgG_Xen (10 mg/mL in PBS, referred to as Ref_mAb_33); Bendamustine (Mundipharma, Lot No. 83889).
SCID mice were pre-treated with Cyclophosphamide (75 mg/kg, i.p., twice daily) for two days prior to RAMOS cell inoculation (Day −2 and −1). On the day of inoculation (Day 0), the mice were separated into seven groups of ten mice each, and inoculated with 1×10^6 RAMOS cells each intravenously into the tail vein. The planned dosing regimen for each group is shown in Table 5 and commenced on Day 3. The study duration was 60 days.
From the raw data shown in Table 6, both the median survival in days and median increase in lifespan were calculated. All treatment related deaths were excluded in the calculations.
Median % Increased Lifespan (ILS) is calculated as follows: […]
The classification of the MOR000208/Bendamustine combination therapy (combo) effect was evaluated by comparing the ILS of the combination with the added ILS of the respective monotherapies:
Synergy/Potentiation*: ILSCombo>ILSMOR00208 3 mg/kg+ILSBendamustine. Synergistic effects are classified as potentiation if at least one of the monotherapies has no effect. Additivity: ILSCombo=ILSMOR00208 3 mg/kg+ILSBendamustine. Antagonism: ILSCombo<ILSMOR00208 3 mg/kg+ILSBendamustine.
In addition to an analysis of the data for purposes of identifying synergy, the following statistical analysis was also completed. Statistical analyses were carried out using the median values. Any animal that died unexpectedly or was culled prior to Day 17 of the study in the Test Article treatment groups was excluded from survival analysis calculation. The death/culling of these animals was attributed to compound toxicity rather than disease progression as they occurred well in advance of the first deaths in the Vehicle Control animals. A survival curve was created using the product limit of Kaplan and Meier, and survival curves compared using the log-rank (Mantel-Cox) test. Where significant differences were found, All Pairwise Multiple Comparison (Holm-Sidak Test) was performed. Comparison was done between all groups. In addition the comparison of the following groups were summarised in separate figures for each test article: Vehicle Control/Ref_mAb (group 10) against Bendamustine groups (Groups 2, 3 and 4) and Vehicle Control/Ref_mAb (group 10) against Combination groups (Groups 5 and 6) or respective MOR00208 monotherapy group (group 1). A p value of less than 0.05 was considered significant.

[1] = Table 8, listed as Bendamustine = 13 mg/kg
[2] = Table 9, listed as combination = 3/13 mg/kg
[3] = Table 10, listed as combination = 3/16 mg/kg
[4] = untitled repeat of Table 8, listed as Bendamustine = 13 mg/kg

MOR00208: anti-CD19 antibody; variable domains shown in FIG. 3, heavy and light chain Fc regions in FIG. 4
Median Survival (Days Post-Inoculation): 32^a Days Post-Inoculation
Median % Increase in Lifespan (ILS) (3 mg/kg, vs. vehicle control/Ref_mAb_33): 25.5%
Survival, pairwise comparison (Holm-Sidak) vs. Group 2 (Table 8): ***Yes (***Yes: There is a statistically significant difference (p < 0.001).)
Survival, pairwise comparison (Holm-Sidak) vs. Group 3 [1]: ***Yes (***Yes: There is a statistically significant difference (p < 0.001).)
Survival, pairwise comparison (Holm-Sidak) vs. Group 2 [2]: ***Yes (***Yes: There is a statistically significant difference (p < 0.001).)
Survival, pairwise comparison (Holm-Sidak) vs. Group 5 (Table 9): *Yes (*Yes: There is a statistically significant difference (p < 0.05).)
Survival, pairwise comparison (Holm-Sidak) vs. Group 3 [3]: ***Yes (***Yes: There is a statistically significant difference (p < 0.001).)
Survival, pairwise comparison (Holm-Sidak) vs. Group 6 (Table 10): ***Yes (***Yes: There is a statistically significant difference (p < 0.001).)
Survival, pairwise comparison (Holm-Sidak) vs. Group 2 (untitled repeat of Table 8): ***Yes (***Yes: There is a statistically significant difference (p < 0.001).)
Survival, pairwise comparison (Holm-Sidak) vs. Group 3 [4]: ***Yes (***Yes: There is a statistically significant difference (p < 0.001).)

B1: RefmAb33: antibody specific for RSV, used as isotype control, shares the same Fc region as MOR00208 (SEQ ID NO: 8, 9) (antibody)
heavy: QVTLRESGPALVKPTQTLTLTCTFSGFSLSTAGMSVGWIRQPPGKALEWLADIWWDDKKHYNPSLKDRLTISKDTSKNQVVLKVTNMDPADTATYYCARDMIFNFYFDVWGQGTTVTVSSASTKGPSVFPLAPSSKSTSGGTAALGCLVKDYFPEPVTVSWNSGALTSGVHTFPAVLQSSGLYSLSSVVTVPSSSLGTQTYICNVNHKPSNTKVDKKVEPKSCDKTHTCPPCPAPELLGGPDVFLFPPKPKDTLMISRTPEVTCVVVDVSHEDPEVQFNWYVDGVEVHNAKTKPREEQFNSTFRVVSVLTVVHQDWLNGKEYKCKVSNKALPAPEEKTISKTKGQPREPQVYTLPPSREEMTKNQVSLTCLVKGFYPSDIAVEWESNGQPENNYKTTPPMLDSDGSFFLYSKLTVDKSRWQQGNVFSCSVMHEALHNHYTQKSLSLSPGK
light: DIQMTQSPSTLSASVGDRVTITCSASSRVGYMHWYQQKPGKAPKLLIYDTSKLASGVPSRFSGSGSGTEFTLTISSLQPDDFATYYCFQGSGYPFTFGGGTKVEIKRTVAAPSVFIFPPSDEQLKSGTASVVCLLNNFYPREAKVQWKVDNALQSGNSQESVTEQDSKDSTYSLSSTLTLSKADYEKHKVYACEVTHQGLSSPVTKSFNRGEC
modifications: Heavy chain RefMab33; Light chain RefMab33
Median Survival (Days Post-Inoculation): 25.5 Days Post-Inoculation
Survival, pairwise comparison (Holm-Sidak) vs. Group 1 (Table 8): ***Yes (***Yes: There is a statistically significant difference (p < 0.001).)
Survival, pairwise comparison (Holm-Sidak) vs. Group 2 (Table 8): *Yes (*Yes: There is a statistically significant difference (p < 0.05).)
Survival, pairwise comparison (Holm-Sidak) vs. Group 3 [1]: No (No: There is no statistically significant difference (p ≥ 0.05).)
Survival, pairwise comparison (Holm-Sidak) vs. Group 1 (Table 9): ***Yes (***Yes: There is a statistically significant difference (p < 0.001).)
Survival, pairwise comparison (Holm-Sidak) vs. Group 2 [2]: *Yes (*Yes: There is a statistically significant difference (p < 0.05).)
Survival, pairwise comparison (Holm-Sidak) vs. Group 5 (Table 9): ***Yes (***Yes: There is a statistically significant difference (p < 0.001).)
Survival, pairwise comparison (Holm-Sidak) vs. Group 1 (Table 10): ***Yes (***Yes: There is a statistically significant difference (p < 0.001).)
Survival, pairwise comparison (Holm-Sidak) vs. Group 3 [3]: No (No: There is no statistically significant difference (p ≥ 0.05).)
Survival, pairwise comparison (Holm-Sidak) vs. Group 6 (Table 10): ***Yes (***Yes: There is a statistically significant difference (p < 0.001).)
Survival, pairwise comparison (Holm-Sidak) vs. Group 1 (untitled repeat of Table 8): ***Yes (***Yes: There is a statistically significant difference (p < 0.001).)
Survival, pairwise comparison (Holm-Sidak) vs. Group 2 (untitled repeat of Table 8): *Yes (*Yes: There is a statistically significant difference (p < 0.05).)
Survival, pairwise comparison (Holm-Sidak) vs. Group 3 [4]: No (No: There is no statistically significant difference (p ≥ 0.05).)

Source: US20240366756A1, “COMBINATIONS AND USES THEREOF” (Incyte Corporation, priority 2011, published 2024)
